Where two headings read alike, the source gives them in different places.
Key:
[1] = target: T1, RPA heterotrimer (RPA1/RPA2/RPA3) (human, UniProt P27694;P15927;P35244 1-616;1-270;1-121); assay: bulk FRET
hnRNPA1 [2] = target: T2, hnRNPA1 (human, UniProt P09651 1-372); assay: bulk FRET
RPA-E240K heterotrimer = RPA-E240K heterotrimer (human, UniProt P27694;P15927;P35244 1-616;1-270;1-121, E240K); assay: mass photometry
[3] = target: T1, RPA heterotrimer (RPA1/RPA2/RPA3); assay: mass photometry
[4] = target: T1, RPA heterotrimer (RPA1/RPA2/RPA3); assay: EMSA
hnRNPA1 [5] = target: T2, hnRNPA1; assay: bulk FRET; remark: listed apart in the source
[6] = target: hnRNPA1;RPA-E240K heterotrimer (human;human, UniProt P09651;P27694;P15927;P35244 1-372;1-616;1-270;1-121, |E240K); assay: bulk FRET
Chain of hnRNPA1;RPA-E240K heterotrimer (P09651 whole entry, chain 1 of 4): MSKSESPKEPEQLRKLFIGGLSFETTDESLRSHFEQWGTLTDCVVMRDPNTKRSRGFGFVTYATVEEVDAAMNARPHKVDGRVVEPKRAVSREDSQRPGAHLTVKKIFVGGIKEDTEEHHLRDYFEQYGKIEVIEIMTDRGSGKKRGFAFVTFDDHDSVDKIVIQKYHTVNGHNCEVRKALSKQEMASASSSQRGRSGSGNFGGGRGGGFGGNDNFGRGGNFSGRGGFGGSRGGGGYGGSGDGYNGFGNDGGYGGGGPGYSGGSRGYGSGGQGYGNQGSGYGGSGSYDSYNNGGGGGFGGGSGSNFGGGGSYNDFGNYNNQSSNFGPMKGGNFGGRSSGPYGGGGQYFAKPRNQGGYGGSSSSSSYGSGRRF
Chain of hnRNPA1;RPA-E240K heterotrimer (P27694 whole entry E240K, chain 2 of 4): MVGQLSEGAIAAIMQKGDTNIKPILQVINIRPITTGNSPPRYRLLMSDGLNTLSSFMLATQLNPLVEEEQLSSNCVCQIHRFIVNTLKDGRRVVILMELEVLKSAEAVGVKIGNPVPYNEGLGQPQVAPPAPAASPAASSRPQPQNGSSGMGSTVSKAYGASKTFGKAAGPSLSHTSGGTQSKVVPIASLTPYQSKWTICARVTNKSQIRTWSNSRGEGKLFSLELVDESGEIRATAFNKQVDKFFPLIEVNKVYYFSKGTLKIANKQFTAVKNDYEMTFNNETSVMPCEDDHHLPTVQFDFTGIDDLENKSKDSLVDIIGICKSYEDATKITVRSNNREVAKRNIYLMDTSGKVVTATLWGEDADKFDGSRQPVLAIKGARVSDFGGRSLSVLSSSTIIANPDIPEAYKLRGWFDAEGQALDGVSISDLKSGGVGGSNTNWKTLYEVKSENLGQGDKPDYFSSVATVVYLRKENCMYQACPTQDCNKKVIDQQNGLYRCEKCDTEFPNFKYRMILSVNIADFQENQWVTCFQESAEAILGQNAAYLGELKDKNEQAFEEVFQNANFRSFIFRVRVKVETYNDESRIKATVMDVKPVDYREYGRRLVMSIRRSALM
Chain of hnRNPA1;RPA-E240K heterotrimer (P15927 whole entry, chain 3 of 4): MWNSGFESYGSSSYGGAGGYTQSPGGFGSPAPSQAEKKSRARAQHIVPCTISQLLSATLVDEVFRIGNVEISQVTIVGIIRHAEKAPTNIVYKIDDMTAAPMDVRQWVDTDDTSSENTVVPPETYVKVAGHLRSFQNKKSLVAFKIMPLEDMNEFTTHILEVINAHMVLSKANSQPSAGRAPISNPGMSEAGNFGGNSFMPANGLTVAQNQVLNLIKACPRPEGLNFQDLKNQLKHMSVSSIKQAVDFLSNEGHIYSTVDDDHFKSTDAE
Chain of hnRNPA1;RPA-E240K heterotrimer (P35244 whole entry, chain 4 of 4): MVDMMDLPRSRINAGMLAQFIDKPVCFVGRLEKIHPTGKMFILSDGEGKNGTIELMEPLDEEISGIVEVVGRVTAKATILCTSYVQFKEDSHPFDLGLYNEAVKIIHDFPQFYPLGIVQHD

[7] = target: hnRNPA1;RPA heterotrimer (RPA1/RPA2/RPA3) (human;human, UniProt P09651;P27694;P15927;P35244 1-372;1-616;1-270;1-121, |); assay: bulk FRET
Chain of hnRNPA1;RPA heterotrimer (RPA1/RPA2/RPA3) (P09651 whole entry, chain 1 of 4): as the sequence (P09651 whole entry, chain 1 of 4) above
Chain of hnRNPA1;RPA heterotrimer (RPA1/RPA2/RPA3) (P27694 whole entry, chain 2 of 4): as the sequence (P27694 whole entry E240K, chain 2 of 4) above, with K240E counted along it
Chain of hnRNPA1;RPA heterotrimer (RPA1/RPA2/RPA3) (P15927 whole entry, chain 3 of 4): as the sequence (P15927 whole entry, chain 3 of 4) above
Chain of hnRNPA1;RPA heterotrimer (RPA1/RPA2/RPA3) (P35244 whole entry, chain 4 of 4): as the sequence (P35244 whole entry, chain 4 of 4) above

T1 sequence (P27694 whole entry, chain 1 of 3): as the sequence (P27694 whole entry E240K, chain 2 of 4) above, with K240E counted along it
T1 sequence (P15927 whole entry, chain 2 of 3): as the sequence (P15927 whole entry, chain 3 of 4) above
T1 sequence (P35244 whole entry, chain 3 of 3): as the sequence (P35244 whole entry, chain 4 of 4) above
T2 sequence (P09651 whole entry): as the sequence (P09651 whole entry, chain 1 of 4) above
Chain of RPA-E240K heterotrimer (P27694 whole entry E240K, chain 1 of 3): as the sequence (P27694 whole entry E240K, chain 2 of 4) above
Chain of RPA-E240K heterotrimer (P15927 whole entry, chain 2 of 3): as the sequence (P15927 whole entry, chain 3 of 4) above
Chain of RPA-E240K heterotrimer (P35244 whole entry, chain 3 of 3): as the sequence (P35244 whole entry, chain 4 of 4) above

TTTTTTTTTTTTTTTTTTTTTTTTTTTTTT (ssDNA) [dT30]
binding result [1]: binds

TTAGGGTTAGGGTTA (ssDNA) [h-tel-15(FRET)]
Kd (hnRNPA1 [2]): 73.5 ± 4.3 nM

TTAGGGTTAGGGTTAGGGTTAGGGTTAGGG (structured_DNA) [h-telG4 (MP)]
binding result (RPA-E240K heterotrimer): binds | binding result [3]: binds

TGGGGAGGGTGGGGAGGGTGGGGAAGG (structured_DNA) [PU27G4]
binding result [1]: binds

TTAGGGTTAGGGTTAGGGTTAGGGTTAGGG (structured_DNA) [h-telG4 (FRET), five telomeric repeats]
binding result [4]: binds | Kd (hnRNPA1 [5]): 20.6 ± 3.5 nM | Kd [6]: 75.9 ± 25.5 nM | Kd [7]: 27.4 ± 2.7 nM

AGGGGCGGGCGCTTTAGGAAAAGGGCGGGT (structured_DNA) [BCL-2G4 1245]
binding result [1]: binds

— paper PMC11551749
